11 molecules from patent US20020164716A1 (GENETICS INSTITUTE, published 2002) can be followed below.

First the molecules themselves.
B3: LexA-TNF-R1-DD fusion protein (death domain of the P55 type 1 TNF receptor) (receptor, UniProt P19438 355-442, looked up)
chain: DPATLYAVVENVPPLRWKEFVRRLGLSDHEIDRLELQNGRCLREAQYSMLATWRRRTPRREATLELLGRVLRDMDLLGCLEDIEEALC
notes: range 326-413; also called TNF-RDD; TNF-R death domain; not shown: LexA, bait fusion partner from plasmid pEG202

Experiment [1] deals with T1, TNF-R1-DD ligand protein encoded by clone 1TU (Homo sapiens (Human), UniProt Q8TEL6 488-797).
T1 construct: partial clone
T1 sequence: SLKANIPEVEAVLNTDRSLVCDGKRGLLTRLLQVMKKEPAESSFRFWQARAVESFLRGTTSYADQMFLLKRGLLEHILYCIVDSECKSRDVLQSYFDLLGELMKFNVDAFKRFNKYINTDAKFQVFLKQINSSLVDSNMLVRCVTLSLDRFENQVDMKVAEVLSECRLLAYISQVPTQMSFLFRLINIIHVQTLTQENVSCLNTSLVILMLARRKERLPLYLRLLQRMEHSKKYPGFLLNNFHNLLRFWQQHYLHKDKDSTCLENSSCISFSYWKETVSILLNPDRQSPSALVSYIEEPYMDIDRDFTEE
Kind of experiment: yeast interaction trap, panel of baits. The text has this: (§1) The ability of these clones to bind the TNF-R death domain was compared to their binding to the intracellular domain of the second TNF-R (TNF-R p75IC), the entire intracellular domain of TNF-R (TNF-R p55IC), the death domain of the fas antigen (which shares 28% identity with TNF-R-DD) (FasDD), the Drosophila transcription factor bicoid, and a region of the IL-1 receptor known to be critical for signalling (IL-1R₄₇₇₋₅₂₇).

The target in experiment [2] is T2, TNF-R1-DD ligand protein encoded by clone 27TU (Homo sapiens (Human), UniProt Q8WXG6 1002-1647).
T2 construct: partial clone
T2 sequence (Q8WXG6 other isoform, or with tags, fused parts or gaps): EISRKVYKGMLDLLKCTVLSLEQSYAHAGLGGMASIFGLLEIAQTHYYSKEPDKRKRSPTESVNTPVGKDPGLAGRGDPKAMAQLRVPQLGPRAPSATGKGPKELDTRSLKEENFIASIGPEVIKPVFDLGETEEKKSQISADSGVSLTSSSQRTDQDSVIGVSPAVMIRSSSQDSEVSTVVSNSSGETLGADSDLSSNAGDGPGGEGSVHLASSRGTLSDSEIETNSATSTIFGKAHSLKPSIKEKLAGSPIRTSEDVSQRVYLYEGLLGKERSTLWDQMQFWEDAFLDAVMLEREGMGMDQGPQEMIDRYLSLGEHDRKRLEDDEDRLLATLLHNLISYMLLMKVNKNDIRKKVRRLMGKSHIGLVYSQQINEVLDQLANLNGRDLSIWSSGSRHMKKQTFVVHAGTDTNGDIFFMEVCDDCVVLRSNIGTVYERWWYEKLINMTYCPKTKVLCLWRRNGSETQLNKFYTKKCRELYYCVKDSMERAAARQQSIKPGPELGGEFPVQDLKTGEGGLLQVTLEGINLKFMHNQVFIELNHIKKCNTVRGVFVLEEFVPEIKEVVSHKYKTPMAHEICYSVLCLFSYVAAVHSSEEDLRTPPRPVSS
As to the kind of experiment: yeast interaction trap, panel of baits.
From the text: as §1

Experiment [3] addresses T3, protein encoded by clone 15TU (Homo sapiens (Human), UniProt Q8WXG6 1329-1647).
T3 construct: The limits 289-607 are printed as approximate
As to the kind of experiment: yeast interaction trap, panel of baits.
From the text: as §1

Experiment [4] concerns the target T1, TNF-R1-DD ligand protein encoded by …. Kind of experiment: yeast interaction trap, wild type against death domain mutants.
Experiment [5] addresses T3, protein encoded by clone 15TU. Described as above.
Experiment [6] deals with T4, TNF-R1-DD ligand protein encoded by clone 3DD (Homo sapiens (Human), UniProt Q9H3U1 807-944).
T4 construct: partial clone
T4 sequence: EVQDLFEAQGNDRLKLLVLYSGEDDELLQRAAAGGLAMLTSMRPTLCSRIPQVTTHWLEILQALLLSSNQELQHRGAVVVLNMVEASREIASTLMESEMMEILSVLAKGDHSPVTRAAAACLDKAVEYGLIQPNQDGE
Kind of experiment: yeast interaction trap, panel of baits. The text has this: (§2) A yeast genetic selection method, the “interaction trap” [Gyuris et al, Cell 75:791-803, 1993, which is incorporated herein by reference], was used to screen WI38 cell cDNA libraries (preparation, see below) for proteins that interact with the death domain of the P55 type 1 TNF receptor (TNF-R1-DD). A polynucleotide encoding amino acids 326 to 413 of the P55 type TNF receptor, TNF-R1-DD, was obtained via the polymerase chain reaction (PCR) using a grafting method. This TNF-R1-DD DNA was then cloned into pEG202 by BamHI and SalI sites, generating the bait plasmid, pEG202-TNF-R1-DD. This plasmid contains the HIS3 selectable marker, and expression of the bait, the LexA-TNF-R1-DD fusion protein, is from the strong constitutive ADH1 promoter. To create the reporter strain carrying the bait protein, yeast strain EGY48, containing the reporter sequence LexAop-Leu2 in place of the chromosomal LEU2, was transformed with pEG202-TNF-R1-DD and pSH18-34 (Ura+), which carries another reporter sequence, LexAop-lacZ. For screening cDNAs encoding proteins that interact with TNF-R1-DD, the expression vector pJG4-5 (TRP1), containing the WI38 cell cDNA library (see below for the cDNA library construction), was transformed into the above strain (EGY48/pEG202-TNF-R1-DD/pSH18-34) according to the method described by Gietz et al., Nucleic Acids Res., 20:1425 (1992).
(§3) The clones “2DD,” “3DD” and “20DD” were chosen for further analysis. Library vector pJG4-5 containing these clones sequences were rescued from yeast by transforming the total yeast DNAs into the E. coli strain KC8 and selecting for growth on Trp-ampicillin plates.

In experiment [7] the target is T5, TNF-R1-DD ligand protein encoded by clone 2DD (Homo sapiens (Human), UniProt Q8WXG6 1217-1647).
T5 construct: partial clone of a longer protein
T5 sequence (Q8WXG6 other isoform, or with tags, fused parts or gaps): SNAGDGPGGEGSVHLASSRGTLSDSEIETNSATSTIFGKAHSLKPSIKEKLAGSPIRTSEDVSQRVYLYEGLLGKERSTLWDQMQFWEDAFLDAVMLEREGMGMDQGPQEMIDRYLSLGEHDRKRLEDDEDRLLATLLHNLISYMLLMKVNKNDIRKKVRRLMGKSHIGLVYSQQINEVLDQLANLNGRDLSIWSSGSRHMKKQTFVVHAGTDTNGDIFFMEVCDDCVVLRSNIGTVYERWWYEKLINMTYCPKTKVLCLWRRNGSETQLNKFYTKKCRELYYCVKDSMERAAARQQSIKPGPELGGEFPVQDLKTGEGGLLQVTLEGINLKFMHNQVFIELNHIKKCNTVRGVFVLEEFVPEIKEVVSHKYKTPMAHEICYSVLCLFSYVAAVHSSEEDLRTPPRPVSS
Kind of experiment: yeast interaction trap, panel of baits.
From the text: as §2, §3

Experiment [8] has as its target T1, TNF-R1-DD ligand protein encoded by …. As to the kind of experiment: yeast interaction trap, death domain mutants. How it is done:
(§4) The ability of each clone to interact with four single-site mutations in the TNF-R death domain (each known to abolish signalling) was measured.

For experiment [9], the target named is T3, protein encoded by clone 15TU. As to the kind of experiment: yeast interaction trap, death domain mutants. How it is done:
as §4

In experiment [10] the target is T2, TNF-R1-DD ligand protein encoded by …. Kind of experiment: yeast interaction trap, death domain mutants. How it is done: as §4
For the next experiment, the target named is MBP protein (UniProt P0AEX9 27-392 = MBP). Kind of experiment: pull-down on glutathione beads, Western blot with anti-MBP antibody. How it is done: The reaction ws performed at 4° C. for 2 hours and centrifuged to remove unbound fraction (Unbound). The beads were then washed with 500 μl binding buffer four times and resuspended into SDS-sample buffer (Bound).

The target of experiment [11] is B3. As to the kind of experiment: yeast interaction trap, panel of baits.
From the text: as §2, §3

T3 sequence (Q8WXG6 1329-1647): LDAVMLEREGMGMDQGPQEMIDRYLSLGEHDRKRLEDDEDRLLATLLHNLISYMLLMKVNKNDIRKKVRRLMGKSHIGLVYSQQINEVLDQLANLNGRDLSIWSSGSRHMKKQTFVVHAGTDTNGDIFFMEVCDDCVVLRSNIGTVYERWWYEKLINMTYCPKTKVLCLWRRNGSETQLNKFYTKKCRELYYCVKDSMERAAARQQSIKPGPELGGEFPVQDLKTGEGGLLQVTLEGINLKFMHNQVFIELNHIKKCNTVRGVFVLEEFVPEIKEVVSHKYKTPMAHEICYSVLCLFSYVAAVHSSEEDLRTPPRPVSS

B1: intracellular domain of the second TNF-R (TNF-R p75IC) (receptor, UniProt P20333 288-461, looked up)
chain: KKKPLCLQREAKVPHLPADKARGTQGPEQQHLLITAPSSSSSSLESSASALDRRAPTRNQPQAPGVEASGAGEARASTGSSDSSPGGHGTQVNVTCIVNVCSSSDHSSQCSSQASSTMGDTDSSPSESPKDEQVPFSKEECAFRSQLETPETLLGSTEEKPLPLGVPDAGMKPS
notes: domain: intracellular domain; also called TNF-R p75JC
As for B1, the binding result in experiment [1] and in experiment [2] was “no binding” each time.

B2: entire intracellular domain of TNF-R (TNF-R p55IC) (receptor, UniProt P19438 233-455, looked up)
chain: MYRYQRWKSKLYSIVCGKSTPEKEGELEGTTTKPLAPNPSFSPTPGFTPTLGFSPVPSSTFTSSSTYTPGDCPNFAAPRREVAPPYQGADPILATALASDPIPNPLQKWEDSAHKPQSLDTDDPATLYAVVENVPPLRWKEFVRRLGLSDHEIDRLELQNGRCLREAQYSMLATWRRRTPRREATLELLGRVLRDMDLLGCLEDIEEALCGPAALPPAPSLLR
notes: domain: entire intracellular domain; also called TNF-R p55JC; cytoplasmic domain of the p55 TNF-R
For the molecule B2, the binding result in [1], in experiment [3] and in [2] was “binds” in each case.
For B3, the binding result in experiment [2], in [4], in experiment [5], in experiment [6] and in [7] was “binds” in each case.

B4: TNF-R death domain mutant I408A (receptor, UniProt P19438 355-442, looked up)
chain: DPATLYAVVENVPPLRWKEFVRRLGLSDHEIDRLELQNGRCLREAQYSMLATWRRRTPRREATLELLGRVLRDMDLLGCLEDAEEALC
notes: range 326-413; Numbering as printed, see the note of m7; not shown: LexA, bait fusion partner from plasmid pEG202
B4: the binding result in [8], in experiment [9] and in experiment [10] was “binds” each time.

B5: TNF-R death domain mutant F345A (receptor, UniProt P19438 355-442, looked up)
chain: DPATLYAVVENVPPLRWKEAVRRLGLSDHEIDRLELQNGRCLREAQYSMLATWRRRTPRREATLELLGRVLRDMDLLGCLEDIEEALC
notes: as for B4
With B5, the binding result in experiment [8], in experiment [9] and in experiment [10] was “binds” in each case.

B6: TNF-R death domain mutant L351A (receptor, UniProt P19438 355-442, looked up)
chain: DPATLYAVVENVPPLRWKEFVRRLGASDHEIDRLELQNGRCLREAQYSMLATWRRRTPRREATLELLGRVLRDMDLLGCLEDIEEALC
notes: as for B4
Take B6: the binding result in experiment [8], in [9] and in experiment [10] was “binds” each time.

B7: TNF-R death domain mutant W378A (receptor, UniProt P19438 355-442, looked up)
chain: DPATLYAVVENVPPLRWKEFVRRLGLSDHEIDRLELQNGRCLREAQYSMLATARRRTPRREATLELLGRVLRDMDLLGCLEDIEEALC
notes: as for B4
As for B7, the binding result in experiment [8], in [9] and in [10] was “binds” in each case.

B8: TNF-R1-DD expressed as a GST fusion protein (receptor)
chain: DPATLYAVVENVPPLRWKEFVRRLGLSDHEIDRLELQNGRCLREAQYSMLATWRRRTPRREATLELLGRVLRDMDLLGCLEDIEEALC
notes: range 326-413; Purified, bacterially expressed, held on glutathione beads; Numbering: see the note of m7; also called GST-TNF-R1-DD; GST/TNF-R1-DD; not shown: glutathione-S-transferase (GST) from a pGEX vector (Pharmacia)
For the molecule B8, the binding result with MBP protein is listed as “no binding (tested: 3 µg)”.

B9: death domain of the fas antigen (FasDD) (receptor, UniProt P25445 230-314, looked up)
chain: SKYITTIAGVMTLSQVKGFVRKNGVNEAKIDEIKNDNVQDTAEQKVQLLRNWHQLHGKKEAYDTLIKDLKKANLCTLAEKIQTII
notes: domain: death domain
As to B9, the binding result in experiment [1], in experiment [3] and in [2] was “no binding” in each case.

B10: TNF-R1-DD ligand protein encoded by clone 20DD (ligand, not shown: large carriers)
chain: EKPLHALLHGRGVCLNEKSYREQVKIERDSREHEEPTTSEMAEETYSPKIFRPKHTRISELKAEAVKKDRRKKLTQSKFVGGAENTAHPRIISEPEMRQESEQGPCRRHMEASLQELKASPRMVPRAVYLPNCDRKGFYKRKQCKPSRGRKRGICWCVDKYGMKLPGMEYVDGDFQCHTFDSSNVE
Take B10: the binding result in [11] is reported as “binds”.

B11: Drosophila transcription factor bicoid (other, UniProt P09081-2 2-160, looked up)
chain: AQPPPDQNFYHHPLPHTHTHPHPHSHPHPHSHPHPHHQHPQLQLPPQFRNPFDLLFDERTGAINYNYIRPYLPNQMPKPEELPDSLVMRRPRRTRTTFTSSQIAELEQHFLQGRYLTAPRLADLSAKLALGTAQVKIWFKNRRRRHKIQSDQHKDQSYE
For B11, the binding result in [3] and in experiment [2] was “no binding” in each case.
